Reference: patent US20220380463A1 (Adimab, published 2022)

Target: T1, Cynomolgus CD3εδ Fc heterodimer (Cy CD3ε Fc / CD3δ Fc-HIS) (cynomolgus, UniProt Q95LI8 22-100)
T1 chain 1: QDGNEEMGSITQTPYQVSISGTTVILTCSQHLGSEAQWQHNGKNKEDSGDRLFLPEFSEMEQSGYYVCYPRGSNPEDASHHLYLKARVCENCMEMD
T1 chain 2: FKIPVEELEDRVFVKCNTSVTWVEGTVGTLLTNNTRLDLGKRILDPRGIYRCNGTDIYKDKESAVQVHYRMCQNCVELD
Experiment: BLI (Octet), IgG on AHC sensor, pH 6.0

B1: SAD10319_P02_G06 (ADI-48632) (antibody, V domains shown)
VH: QVQLVQSGAEVKKPGASVKVSCKASGYTFTSYAMHWVRQAPGQRLEWMGWINPDTGATVYSQKFQGRVTITRDTSASTAYMELSSLRSEDTAVYYCARDAYHHYFYDVWGQGTLVTVSS
VL: DIVMTQSPDSLAVSLGERATINCKSSQSLLNARTGKNYLAWYQQKPGQPPKLLIYWASTRESGVPDRFSGSGSGTDFTLTISSLQAEDVAVYYCKQSYSRRTFGGGTKVEIK
notes: IgG; also called Ab15
Question: Which koff does the source give for B1 here?
Answer: 0.0242 s⁻¹

B2: SAD10319_P04_G11 (ADI-48641) (antibody, V domains shown)
VH: QVQLVQSGAEVKKPGASVKVYCKASGYTFTTYEMHWVRQAPGQRLEWMGSINAGDANTKYSQKFQGRVTITRDTSASTAYMELSSLRSEDTAVYYCARDAYHHYFYDVWGQGTLVTVSS
VL: DIVMTQSPDSLAVSLGERATINCKSSQSLLNARTGKNYLAWYQQKPGQPPKLLIYWASTRESGVPDRFSGSGSGTDFTLTISSLQAEDVAVYYCKQSYSRRTFGGGTKVEIK
notes: IgG; also called Ab39
Question: Which koff does the source give for B2 here?
Answer: 0.00317 s⁻¹

B3: SAD10319_P04_A10 (ADI-57331) (antibody, V domains shown)
VH: QVQLVQSGAEVKKPGASVKVSCKASGYTFTSDAMHWVRQAPGQRLAWMGYINAGTGTTKYSQKFQGRVTITRDTSASTAYMELSSLRSEDTAVYYCAHDAYGHYFYDVWGQGTLVTVSS
VL: DIVMTQSPDSLAVSLGERATINCKSSQSLLNARTGKNYLAWYQQKPGQPPKLLIYWASTRESGVPDRFSGSGSGTDFTLTISSLQAEDVAVYYCKQSYSRRTFGGGTKVEIK
notes: IgG; also called Ab29
Question: How did the koff turn out when B3 was run?
Answer: 0.0262 s⁻¹

B4: SAD10319_P04_C10 (ADI-57333) (antibody, V domains shown)
VH: QVQLVQSGAEVKKPGASVKVSCKASGYTFTDYSMHWVRQAPGQRLEWMGSINAGTGITKYSQKFQGRVTITRDTSASTAYMELSSLRSEDTAVYYCARDAHGRYFYDVWGQGTLVTVSS
VL: DIVMTQSPDSLAVSLGERATINCKSSQSLLNARTGKNYLAWYQQKPGQPPKLLIYWASTRESGVPDRFSGSGSGTDFTLTISSLQAEDVAVYYCKQSYSRRTFGGGTKVEIK
notes: IgG; also called Ab31
Question: How did the koff turn out when B4 was run?
Answer: 0.00124 s⁻¹

B5: SAD10319_P04_E11 (ADI-57338) (antibody, V domains shown)
VH: QVQLVQSGAEVKKPGASVKVSCKASGYTFTDYNMHWVRQAPGQRLEWMGWINPYTGYTKYSQKFQGRVTITRDTSASTAYMELSSLRSEDTAVYYCARDHYGHYFYDVWGQGTLVTVSS
VL: DIVMTQSPDSLAVSLGERATINCKSSQSLLNARTGKNYLAWYQQKPGQPPKLLIYWASTRESGVPDRFSGSGSGTDFTLTISSLQAEDVAVYYCKQSYSRRTFGGGTKVEIK
notes: IgG; also called Ab37
Question: For B5, which koff is on record?
Answer: 0.0239 s⁻¹

B6: SAD10319_P03_H08 (ADI-57328) (antibody, V domains shown)
VH: QVQLVQSGAEVKKPGASVKVSCKASGYTFKSYDMHWVRQAPGQRPEWMGWINAGTGNTVYSQKFQGRVTITRDTSASTAYMELSSLRSEDTAVYYCARDAYHRYFYDVWGQGTLVTVSS
VL: DIVMTQSPDSLAVSLGERATINCKSSQSLLNARTGKNYLAWYQQKPGQPPKLLIYWASTRESGVPDRFSGSGSGTDFTLTISSLQAEDVAVYYCKQSYSRRTFGGGTKVEIK
notes: IgG; also called Ab23
Question: B6 was tested. Which koff did it give?
Answer: 0.00348 s⁻¹

B7: SAD10319_P03_G07 (ADI-57325) (antibody, V domains shown)
VH: QVQLVQSGAEVKKPGASVKVSCKASGYTFDSYLMHWVRQAPGQRLEWMGWIDAGTGATNYSQKFQGRVTITRDTSASTAYMELSSLRSEDTAVYYCARDAHGHYFYDVWGQGTLVTVSS
VL: DIVMTQSPDSLAVSLGERATINCKSSQSLLNARTGKNYLAWYQQKPGQPPKLLIYWASTRESGVPDRFSGSGSGTDFTLTISSLQAEDVAVYYCKQSYSRRTFGGGTKVEIK
notes: IgG; also called Ab18
Question: How did the koff turn out when B7 was run?
Answer: 0.0187 s⁻¹

B8: SAD10319_P04_B11 (ADI-57335) (antibody, V domains shown)
VH: QVQLVQSGAEVKKPGASVKVSCKASGYTFGSYDMHWVRQAPGQRLEWMGWIDAGTGATKYSQKFQGRVTITRDTSASTAYMELSSLRSEDTAVYYCARDAHGHYFYDVWGQGTLVTVSS
VL: DIVMTQSPDSLAVSLGERATINCKSSQSLLNARTGKNYLAWYQQKPGQPPKLLIYWASTRESGVPDRFSGSGSGTDFTLTISSLQAEDVAVYYCKQSYSRRTFGGGTKVEIK
notes: IgG; also called Ab33
Question: B8 was tested. Which koff did it give?
Answer: 0.00273 s⁻¹

B9: SAD10319_P03_D08 (ADI-57327) (antibody, V domains shown)
VH: QVQLVQSGAEVKKPGASVKVSCKASGYTFYSYEMHWVRQAPGQRLDWMGWINPQTGATKYSQKFQGRVTITRDTSASTAYMELSSLRSEDTAVYYCARDAYHHYFYDVWGQGTLVTVSS
VL: DIVMTQSPDSLAVSLGERATINCKSSQSLLNARTGKNYLAWYQQKPGQPPKLLIYWASTRESGVPDRFSGSGSGTDFTLTISSLQAEDVAVYYCKQSYSRRTFGGGTKVEIK
notes: IgG; also called Ab20
Question: With B9 as the binder, how does the koff read?
Answer: 0.02 s⁻¹

B10: SAD10319_P04_C12 (ADI-57341) (antibody, V domains shown)
VH: QVQLVQSGAEVKKPGASVKVSCKASGYTFTAYDMHWVRQAPGQRLERMGWIDPITGNTKYSQKFQGRVTITRDTSASTAYMELSSLRSEDTAVYYCAHDAYGHYFYDVWGQGTLVTVSS
VL: DIVMTQSPDSLAVSLGERATINCKSSQSLLNARTGKNYLAWYQQKPGQPPKLLIYWASTRESGVPDRFSGSGSGTDFTLTISSLQAEDVAVYYCKQSYSRRTFGGGTKVEIK
notes: IgG; also called Ab41
Question: B10 was tested. Which koff did it give?
Answer: 0.0196 s⁻¹

B11: SAD10319_P03_G09 (ADI-57300) (antibody, V domains shown)
VH: QVQLVQSGAEVKKPGASVKVSCKASGYTFTSYDMHWVRQAPGQRLEWMGWIDPHTGATKYSQKFQGRVTITRDTSASTAYMELSSLRSEDTAVYYCARDAYGRYFYDHWGQGTLVTVSS
VL: DIVMTQSPDSLAVSLGERATINCKSSQSLLNARTGKNYLAWYQQKPGQPPKLLIYWASTRESGVPDRFSGSGSGTDFTLTISSLQAEDVAVYYCKQSYSRRTFGGGTKVEIK
notes: IgG; ADI-57300 is also printed for Ab234; also called Ab28
Question: Which koff does the source give for B11 here?
Answer: 0.0219 s⁻¹

B12: SAD10319_P04_F12 (ADI-57343) (antibody, V domains shown)
VH: QVQLVQSGAEVKKPGASVKVSCKASGYTFNDYAMHWVRQAPGQRLDWMGWINPDTGNTNYSQKFQGRVTITRDTSASTAYMELSSLRSEDTAVYYCARDHYGRYFYDHWGQGTLVTVSS
VL: DIVMTQSPDSLAVSLGERATINCKSSQSLLNARTGKNYLAWYQQKPGQPPKLLIYWASTRESGVPDRFSGSGSGTDFTLTISSLQAEDVAVYYCKQSYSRRTFGGGTKVEIK
notes: IgG; also called Ab44
Question: For B12, which koff is on record?
Answer: 0.0162 s⁻¹

B13: SAD10319_P03_E08 (ADI-48637) (antibody, V domains shown)
VH: QVQLVQSGAEVKKPGASVKVSCKASGYTFNDYAMHWVRQAPGQRLEWMGYINGTGATVYSQKFQGRVTITRDTSASTAYMELSSLRSEDTAVYYCARDAYHHYFYDVWSQGTLVTVSS
VL: DIVMTQSPDSLAVSLGERATINCKSSQSLLNARTGKNYLAWYQQKPGQPPKLLIYWASTRESGVPDRFSGSGSGTDFTLTISSLQAEDVAVYYCKQSYSRRTFGGGTKVEIK
notes: IgG; also called Ab21
Question: How did the koff turn out when B13 was run?
Answer: 0.0197 s⁻¹

B14: SAD10319_P03_H07 (ADI-57326) (antibody, V domains shown)
VH: QVQLVQSGAEVKKPGASVKVSCKASGYTFNSYDMHWVRQAPGQRLEWMGWINPYTGETKYSQKFQGRVTITRDTSASTAYMELSSLRSEDTAVYYCARDHYGHYFYDVWGQGTLVTVSS
VL: DIVMTQSPDSLAVSLGERATINCKSSQSLLNARTGKNYLAWYQQKPGQPPKLLIYWASTRESGVPDRFSGSGSGTDFTLTISSLQAEDVAVYYCKQSYSRRTFGGGTKVEIK
notes: IgG; also called Ab19
Question: For B14, which koff is on record?
Answer: 0.0201 s⁻¹

B15: SAD10319_P04_C11 (ADI-57336) (antibody, V domains shown)
VH: QVQLVQSGAEVKKPGASVKVSCKASGYTFHSYEMHWVRQAPGQRLEWMGWINPSTGSTKYSQKFQGRVTITRDTSASTAYMELSSLRSEDTAVYYCARDAYGRYFYDHWGQGTLVTVSS
VL: DIVMTQSPDSLAVSLGERATINCKSSQSLLNARTGKNYLAWYQQKPGQPPKLLIYWASTRESGVPDRFSGSGSGTDFTLTISSLQAEDVAVYYCKQSYSRRTFGGGTKVEIK
notes: IgG; also called Ab34
Question: With B15 as the binder, how does the koff read?
Answer: 0.00317 s⁻¹

B16: SAD10319_P04_D12 (ADI-57342) (antibody, V domains shown)
VH: QVQLVQSGAEVKKPGASVKVSCKASGYTFTSYAMHWVRQAPGQRLDWMGYINPDTGDTKYSQKFQGRVTITRDTSASTAYMELSSLRSEDTAVYYCARDAYHHYFYDVWGQGTLVTVSS
VL: DIVMTQSPDSLAVSLGERATINCKSSQSLLNARTGKNYLAWYQQKPGQPPKLLIYWASTRESGVPDRFSGSGSGTDFTLTISSLQAEDVAVYYCKQSYSRRTFGGGTKVEIK
notes: IgG; also called Ab42
Question: How did the koff turn out when B16 was run?
Answer: 0.012 s⁻¹

B17: SAD10319_P03_F09 (ADI-57329) (antibody, V domains shown)
VH: QVQLVQSGAEVKKPGASVKVSCKASGYTFPSYPMHWVRQAPGQRLDWMGWINPDTGATVYSQKFQGRVTITRDTSASTAYMELSSLRSEDTAVYYCARDAYHHYFYDVWGQGTLVTVSS
VL: DIVMTQSPDSLAVSLGERATINCKSSQSPLNARTGKNYLAWYQQKPGQPPKLLIYWASTRESGVPDRFSGSGSGTDFTLTISSLQAEDVAVYYCKQSYSRRTFGGGTKVEIK
notes: IgG; also called Ab27
Question: For B17, which koff is on record?
Answer: 0.0199 s⁻¹

B18: SAD10319_P04_E12 (ADI-48642) (antibody, V domains shown)
VH: QVQLVQSGAEVKKPGASVKVSCKASGYTFTSYPMHWVRQAPGQRLEWMGWIDAGTGLTTYSQKFQGRVTITRDTSASTAYMELSSLRSEDTAVYYCARDHYHRYFYDMWGQGTLVTVSS
VL: DIVMTQSPDSLAVSLGERATINCKSSQSLLNARTGKNYLAWYQQKPGQPPKLLIYWASTRESGVPDRFSGSGSGTDFTLTISSLQAEDVAVYYCKQSYSRRTFGGGTKVEIK
notes: IgG; also called Ab43
Question: Which koff does the source give for B18 here?
Answer: 0.00307 s⁻¹

B19: SAD10319_P04_F11 (ADI-57339) (antibody, V domains shown)
VH: QVQLVQSGAEVKKPGASVKVSCKASGYTFTDYNMHWVRQAPGQRLQWMGWINPYTGYTKYSQKFQGRVTITRDTSASTAYMELSSLRSEDTAVYYCARDHYGHYFYDVWGQGTLVTVSS
VL: DIVMTQSPDSLAVSLGERATINCKSSQSLLNARTGKNYLAWYQQKPGQPPKLLIYWASTRESGVPDRFSGSGSGTDFTLTISSLQAEDVAVYYCKQSYSRRTFGGGTKVEIK
notes: IgG; also called Ab38
Question: Which koff does the source give for B19 here?
Answer: 0.00202 s⁻¹

B20: SAD10319_P04_D11 (ADI-57337) (antibody, V domains shown)
VH: QVQLVQSGAEVKKPGASVKVSCKASGYTFNSYRMHWVRQAPGQRLEWMGSIDAGTGNTKYSQKFQGRVTITRDTSASTAYMELSSLRSEDTAVYYCARDAYGRYFYDHWGQGTLVTVSS
VL: DIVMTQSPDSLAVSLGERATINCKSSQSLLNARTGKNYLAWYQQKPGQPPKLLIYWASTRESGVPDRFSGSGSGTDFTLTISSLQAEDVAVYYCKQSYSRRTFGGGTKVEIK
notes: IgG; also called Ab35
Question: For B20, which koff is on record?
Answer: 0.00339 s⁻¹

B21: SAD10319_P03_G08 (ADI-48638) (antibody, V domains shown)
VH: QVQLVQSGAEVKKPGASVKVSCKASGYTFSSYDMHWVRQAPGQRLEWMGWIDAGTGFTKYSQKFQGRVTITRDTSASTAYMELSSLRSEDTAVYYCARDAYGHYFYDHWGQGTLVTVSS
VL: DIVMTQSPDSLAVSLGERATINCKSSQSLLNARTGKNYLAWYQQKPGQPPKLLIYWASTRESGVPDRFSGSGSGTDFTLTISSLQAEDVAVYYCKQSYSRRTFGGGTKVEIK
notes: IgG; also called Ab22
Question: Which koff does the source give for B21 here?
Answer: 0.0168 s⁻¹
